This is an account of results in paper PMC11626796.

Test [1] concerns the target Versican treated with chondroitinase ABC (core protein) (bovine) (UniProt P81282). The test is described as follows: ELISA; solid-phase binding assay: proteoglycan or versican domain coated on a 96-well plate (0.25 ug/ml; 0.05-1 ug/ml in Fig. 2A) at 4 C overnight, blocked with 3% BSA in TTBS or casein; rat tail type I collagen 0.1-5 ug/ml in 1% BSA/PBS overnight at RT; detected with biotin-conjugated anti-collagen I antibody, streptavidin-HRP and TMB; Kd from Scatchard plot.

The target in test [2] is Native versican isolated from bovine liver (bovine) (UniProt P81282). Described as above.
Chain of Native versican isolated from bovine liver (bovine) (P81282 21-3381): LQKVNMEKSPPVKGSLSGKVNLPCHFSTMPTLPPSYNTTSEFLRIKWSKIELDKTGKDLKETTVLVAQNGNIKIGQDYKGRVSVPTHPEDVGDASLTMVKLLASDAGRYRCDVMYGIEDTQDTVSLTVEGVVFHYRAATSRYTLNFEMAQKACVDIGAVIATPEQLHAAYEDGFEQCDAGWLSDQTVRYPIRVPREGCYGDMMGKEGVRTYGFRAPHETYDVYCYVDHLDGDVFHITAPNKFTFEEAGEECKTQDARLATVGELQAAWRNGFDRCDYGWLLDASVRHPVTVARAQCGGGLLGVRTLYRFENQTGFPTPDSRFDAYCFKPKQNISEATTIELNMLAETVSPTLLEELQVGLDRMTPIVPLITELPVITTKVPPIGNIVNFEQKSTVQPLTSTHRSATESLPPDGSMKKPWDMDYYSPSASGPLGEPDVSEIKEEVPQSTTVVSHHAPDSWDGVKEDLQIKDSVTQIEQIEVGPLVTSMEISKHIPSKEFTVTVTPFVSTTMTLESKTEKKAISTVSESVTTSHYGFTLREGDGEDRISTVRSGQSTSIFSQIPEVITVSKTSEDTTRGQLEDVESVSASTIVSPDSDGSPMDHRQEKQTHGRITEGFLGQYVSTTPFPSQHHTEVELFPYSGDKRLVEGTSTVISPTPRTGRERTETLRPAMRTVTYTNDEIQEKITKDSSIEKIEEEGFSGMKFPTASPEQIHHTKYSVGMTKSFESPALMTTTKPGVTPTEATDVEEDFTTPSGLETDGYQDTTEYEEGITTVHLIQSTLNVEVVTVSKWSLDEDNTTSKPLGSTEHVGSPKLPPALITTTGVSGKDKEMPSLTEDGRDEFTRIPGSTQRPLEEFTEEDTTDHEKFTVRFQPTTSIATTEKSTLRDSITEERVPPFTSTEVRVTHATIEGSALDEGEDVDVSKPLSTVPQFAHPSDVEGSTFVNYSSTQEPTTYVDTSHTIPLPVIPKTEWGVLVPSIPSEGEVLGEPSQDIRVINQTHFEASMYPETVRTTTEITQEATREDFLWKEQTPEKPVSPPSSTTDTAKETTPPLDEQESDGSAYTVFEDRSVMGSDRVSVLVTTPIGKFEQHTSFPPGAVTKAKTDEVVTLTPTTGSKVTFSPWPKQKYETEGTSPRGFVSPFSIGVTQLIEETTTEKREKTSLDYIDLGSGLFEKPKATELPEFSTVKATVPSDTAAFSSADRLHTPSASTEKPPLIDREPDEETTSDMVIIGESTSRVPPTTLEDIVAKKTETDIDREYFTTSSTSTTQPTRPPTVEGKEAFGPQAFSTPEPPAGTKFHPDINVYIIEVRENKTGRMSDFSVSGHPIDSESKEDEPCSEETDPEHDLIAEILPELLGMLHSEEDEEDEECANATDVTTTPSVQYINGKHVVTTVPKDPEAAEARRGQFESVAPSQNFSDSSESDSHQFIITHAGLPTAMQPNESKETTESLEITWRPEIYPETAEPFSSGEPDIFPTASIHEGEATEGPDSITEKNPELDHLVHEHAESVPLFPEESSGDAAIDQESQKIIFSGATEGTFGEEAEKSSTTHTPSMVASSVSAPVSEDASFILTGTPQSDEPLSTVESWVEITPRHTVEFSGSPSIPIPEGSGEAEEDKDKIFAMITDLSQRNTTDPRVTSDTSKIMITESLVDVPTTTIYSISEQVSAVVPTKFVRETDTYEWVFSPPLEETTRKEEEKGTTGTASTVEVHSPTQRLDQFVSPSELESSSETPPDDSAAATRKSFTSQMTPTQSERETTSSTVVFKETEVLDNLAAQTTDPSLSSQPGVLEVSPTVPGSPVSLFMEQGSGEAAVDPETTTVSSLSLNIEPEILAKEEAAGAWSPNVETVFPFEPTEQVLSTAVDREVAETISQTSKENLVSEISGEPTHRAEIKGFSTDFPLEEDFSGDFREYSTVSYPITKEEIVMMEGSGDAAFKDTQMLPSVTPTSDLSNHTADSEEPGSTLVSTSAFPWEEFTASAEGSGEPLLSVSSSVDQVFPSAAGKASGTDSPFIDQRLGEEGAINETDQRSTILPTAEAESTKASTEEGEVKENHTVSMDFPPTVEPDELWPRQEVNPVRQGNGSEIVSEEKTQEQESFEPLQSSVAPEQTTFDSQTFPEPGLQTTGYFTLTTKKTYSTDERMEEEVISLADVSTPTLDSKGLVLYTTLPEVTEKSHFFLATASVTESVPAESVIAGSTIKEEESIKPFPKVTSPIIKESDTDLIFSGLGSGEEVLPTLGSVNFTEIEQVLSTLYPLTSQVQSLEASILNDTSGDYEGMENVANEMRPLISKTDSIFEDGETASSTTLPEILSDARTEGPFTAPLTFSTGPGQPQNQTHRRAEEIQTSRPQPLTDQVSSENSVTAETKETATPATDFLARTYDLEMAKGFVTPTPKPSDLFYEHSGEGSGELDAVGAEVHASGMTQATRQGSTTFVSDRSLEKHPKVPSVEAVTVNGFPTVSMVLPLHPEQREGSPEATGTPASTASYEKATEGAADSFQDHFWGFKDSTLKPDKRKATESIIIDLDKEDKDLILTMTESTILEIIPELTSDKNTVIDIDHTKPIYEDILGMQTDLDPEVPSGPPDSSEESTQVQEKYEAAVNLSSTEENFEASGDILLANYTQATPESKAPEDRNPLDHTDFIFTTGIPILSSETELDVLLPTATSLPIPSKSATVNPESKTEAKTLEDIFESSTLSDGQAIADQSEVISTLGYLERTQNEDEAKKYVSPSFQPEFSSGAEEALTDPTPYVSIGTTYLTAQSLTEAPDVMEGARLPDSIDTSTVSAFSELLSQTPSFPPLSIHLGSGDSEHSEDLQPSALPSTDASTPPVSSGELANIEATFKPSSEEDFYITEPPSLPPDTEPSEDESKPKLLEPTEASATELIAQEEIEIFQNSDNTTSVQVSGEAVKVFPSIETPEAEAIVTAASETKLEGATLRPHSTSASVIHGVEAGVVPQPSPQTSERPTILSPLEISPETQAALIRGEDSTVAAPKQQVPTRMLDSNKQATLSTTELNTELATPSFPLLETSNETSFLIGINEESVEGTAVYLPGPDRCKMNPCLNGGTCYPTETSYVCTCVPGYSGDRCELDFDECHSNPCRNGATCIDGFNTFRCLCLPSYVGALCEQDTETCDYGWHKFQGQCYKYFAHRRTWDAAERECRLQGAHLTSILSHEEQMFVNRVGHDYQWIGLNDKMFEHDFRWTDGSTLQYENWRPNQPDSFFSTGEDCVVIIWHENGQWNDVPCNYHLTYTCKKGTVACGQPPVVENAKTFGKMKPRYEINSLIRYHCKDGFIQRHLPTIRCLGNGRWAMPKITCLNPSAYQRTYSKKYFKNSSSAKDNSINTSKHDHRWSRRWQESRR

What is called Kd is a measure of binding affinity in units of concentration.

Chain of Versican treated with chondroitinase ABC (core protein) (bovine) (P81282 21-3381): as above

Consider “Rat tail type I telo-collagen, P02454 152-1207; P02466 86-1125 (complex; GAG side chains removed with chondroitinase ABC)”, for which the dissociation constant Kd in test [1] came out at 2.2 nM.

Turning to “Rat tail type I telo-collagen, P02454 152-1207; P02466 86-1125 (complex; chondroitin sulfate GAG side chains)”, the Kd in test [2] amounted to 1.3 nM.
